Substitutions are numbered along the chain they refer to.
B1: CAGCTG probe (dsDNA)
DNA 1: TAGCCAATAACTTCGTCCCTCAGCTGCATATAAGGAAGATCTAACCACCAATTTGG
DNA 2: CCAAATTGGTGGTTAGATCTTCCTTATATGCAGCTGAGGGACGAAGTTATTGGCTA
B2: CACGTG probe (dsDNA)
DNA 1: B1 DNA 1 with G23C, C24G
DNA 2: B1 DNA 2 with G33C, C34G

Tests used:
Settings in all cases: protein: recombinant; tags: N-terminal 6xHis; mScarlet fusion; chain copies: 2; label: 32P (SRI primer strand); blunt
ASCL2 DBD R5K = ASCL2 DBD R5K (human, UniProt Q99929 50-102, R55K); test: EMSA; preferred over CACGTG probe; 32P EMSA: ~50 nM probe, 0.5/1/2 uM protein, 30 min, reagents as in Feng et al., gel at 4 C; fluorescent EMSA: 5x buffer (50 mM Tris pH 7.5, 250 mM NaCl, 5 mM MgCl2, 20% glycerol, 2.5 mM DTT, 2.5 mM EDTA, 250 ug/ml poly(dI-dC), 1 mg/ml BSA) used at 1x plus half volume protein dialysis buffer (20 mM HEPES pH 7.9, 200 mM NaCl, 10% glycerol, 2 mM MgCl2), gel 0.5x TBE at 4 C
ASCL2 DBD R5K+V13R = ASCL2 DBD R5K+V13R (human, UniProt Q99929 50-102, R55K;V63R); test: EMSA; preferred over CAGCTG probe; 32P EMSA: ~50 nM probe, 0.5/1/2 uM protein, 30 min, reagents as in Feng et al., gel at 4 C; fluorescent EMSA: 5x buffer (50 mM Tris pH 7.5, 250 mM NaCl, 5 mM MgCl2, 20% glycerol, 2.5 mM DTT, 2.5 mM EDTA, 250 ug/ml poly(dI-dC), 1 mg/ml BSA) used at 1x plus half volume protein dialysis buffer (20 mM HEPES pH 7.9, 200 mM NaCl, 10% glycerol, 2 mM MgCl2), gel 0.5x TBE at 4 C
ASCL2 DBD V13R = ASCL2 DBD V13R (human, UniProt Q99929 50-102, V63R); test: as above
Sequence of ASCL2 DBD V13R (Q99929 50-102 V63R): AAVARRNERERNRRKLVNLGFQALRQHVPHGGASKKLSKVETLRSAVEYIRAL

Sequence of ASCL2 DBD R5K+V13R (Q99929 50-102 R55K/V63R): as the sequence (Q99929 50-102 V63R) above, with R6K counted along it
Sequence of ASCL2 DBD R5K (Q99929 50-102 R55K): as the sequence (Q99929 50-102 V63R) above, with R6K, R14V counted along it

Row | Binder | binding result (ASCL2 DBD R5K) | binding result (ASCL2 DBD R5K+V13R) | binding result (ASCL2 DBD V13R)
1 | B1 | binds | – | –
2 | B2 | – | binds | binds
